# Measured values taken from patent US6855515B1, “Autoantigenic fragments, methods and assays” (Merck & Co., Inc., priority 1998, dated 2005).
# Key:
# [1] = tested on: endogenous DNA-PKcs, NuMA and PARP in HeLa cell lysates; assay: Cleavage of endogenous substrates in HeLa lysates after adding purified granzyme B, with caspase inhibitors; assay type: biochemical; conditions: for cleavage of PARP: inhibitor added 15 minutes prior to 12.5 nM granzyme B, 100 nM Ac-DEVD-CHO or 2 mM iodoacetamide
# Protocol: (§1) Control HeLa lysates were prepared using methods commonly applied in the art, as described in Casciola-Rosen et al., 1994. […] The mixtures were incubated for 15 mn on ice to facilitate binding of the inhibitors to proteases prior to performing cleavage reactions at 37° C. for 60 min. After electrophoresing the samples on 10% SDS-polyacrylamide gels containing 0.087% bisacrylamide, the intact proteins and their cleaved fragments were visualized by immunoblotting.
# caspase-8 = caspase-8 (Homo sapiens, UniProt Q14790); assay: Cleavage of substrates by purified caspase-8; assay type: biochemical; conditions: 50 nM purified caspase-8; HeLa lysates treated with iodoacetamide, or radiolabeled IvTT substrate
# Sequence of caspase-8 (Q14790 217-374 limits assumed, species assumed): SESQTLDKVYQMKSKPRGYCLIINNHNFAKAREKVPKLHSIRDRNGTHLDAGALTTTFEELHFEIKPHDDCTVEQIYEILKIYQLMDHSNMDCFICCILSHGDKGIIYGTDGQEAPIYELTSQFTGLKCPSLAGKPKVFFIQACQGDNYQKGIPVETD
# Sequence of caspase-8 (Q14790 385-479 limits assumed, species assumed): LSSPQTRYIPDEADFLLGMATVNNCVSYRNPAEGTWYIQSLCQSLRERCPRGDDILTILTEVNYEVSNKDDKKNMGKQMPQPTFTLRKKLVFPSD
# Protocol: To confirm that these substrates were not cleaved by group III caspases, the substrates were incubated with 50 nM purified caspase-8. Cleavage assays were performed in HeLa cell lysates in which endogenous caspases had first been irreversibly inactivated by 1 mM iodoacetamide (4° C. for 15 min), prior to addition of 5 mM DTT to facilitate exogenous caspase-8 activity. No cleavage of topoisomerase-1, Mi-2, U1-70 kDa, PARP, Ku-70, RNA polymerase II large subunit, SRP-72, NuMA or Ki-67 occurred. Caspase-8 was indeed active in these lysates, as evidenced by robust caspase-3 cleavage products of PARP and U1-70 kDa seen when the IAA ‘poisoning’ step was omitted. Radiolabeled PMS1 and PMS2 (generated by IvTT) were also not cleaved by purified caspase-8.
# granzyme B = biological target: T1, granzyme B (Homo sapiens, UniProt P10144); assay: Susceptibility of autoantigens to cleavage by purified granzyme B (HeLa lysate immunoblot or immunoprecipitates); assay type: biochemical; conditions: in vitro
# T1 construct: Some of these preparations were used for the further purification of granzyme B (Tschopp, 1994); endogenous in cells; host or cells: YT cells (human NK cell line), cytoplasmic granules
# T1 sequence (P10144 21-247): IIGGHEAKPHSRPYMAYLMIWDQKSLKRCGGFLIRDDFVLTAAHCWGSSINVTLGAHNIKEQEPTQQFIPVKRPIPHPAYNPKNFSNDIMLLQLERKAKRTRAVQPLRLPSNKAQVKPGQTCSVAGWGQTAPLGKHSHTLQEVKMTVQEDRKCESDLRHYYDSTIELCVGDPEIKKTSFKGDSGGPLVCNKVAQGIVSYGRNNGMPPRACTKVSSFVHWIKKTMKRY
# Protocol: To determine whether susceptibility to direct cleavage by granzyme B was an isolated feature of PARP, NuMA and DNA-PKcs shown above, or whether it was a more general feature of autoantigens, a variety of well-defined autoantigens selected from across the spectrum of systemic autoimmune diseases were tested for susceptibility to cleavage by purified granzyume B. The efficiency of cleavage of the substrates by purified granzyme B was also noted (Table 3). Initially, a series of autoantibodies of well-defined specificity were used to immunoblot lysates of HeLa cells that had been incubated in vitro with or without granzyme B. Lysates were pre-treated with iodoacetamide (IAA) to prevent interference by endogenous caspase activity.
# To perform these studies, HeLa cells were radiolabeled with [^35S] methionine/cysteine, and proteins were immunoprecipitated using human autoantibodies. Protein A-agarose beads containing washed precipitated proteins were resuspended in buffer supporting the activity of granzyme B, and incubated in the absence or presence of added purified granzyme B. Reaction products were visualized using SDS-PAGE and fluorography. To confirm the validity of this approach, several different autoantigens known to be cleaved by granzyme B, as well as several autoantigens and non-autoantigens that are not cleaved by granzyme B, were tested. Using autoantibodies that both immunoblot and immunprecipitate, the cleavage profiles obtained using granzyme B to cleave molecules in lysates (followed by detection with immunoblotting), and after immunoprecipitation (from [^35S]methionine-labeled HeLa lysate) were compared. Identical results were obtained using these 2 methods for cleaved autoantigens (topoisomerase-1, Mi-2, RNA polymerase II large subunit, Ku-70, PARP, and NOR-90), uncleaved autoantigens (Ku-80, Ro 60k), and control substrates (β-tubulin, vinculin). […] Of note, all these additional autoantigens (with the exception of RNA polymerase I) are targeted in autoimmune myositis. However, two other tRNA synthetases (threonyl tRNA synthetase and glycyl tRNA synthetase) that are also autoantigens in autoimmune myositis, were not cleaved using this approach.
# K562 cells = assay: Substrate cleavage in intact K562 cells during YT cell granule content-induced cytotoxicity; assay type: cell-based; conditions: 100 μM Ac-DEVD-CHO
# Protocol: Intact cytoplasmic granules were purified from YT cells, and the granule contents were isolated using known methods (Tschopp, 1994). Some of these preparations were used for the further purification of granzyme B (Tschopp, 1994). Purity of the protease was confirmed by silver staining of overloaded SDS-polyacrylamide gels. The cytotoxic effects of YT granule contents were determined as follows: Jurkat T cells or K562 cells were radiolabeled with 100 μCi/ml [^51Cr] sodium chromate, washed, resuspended in Ca^2+-free HBSS, and then incubated with granule contents (0-5 μl) and 1 mM CaCl2 for increasing times. The percentage specific [^51Cr] was calculated using the following formula: % specific lysis=[(sample cpm−spontaneous cpm)/(maximum cpm−spontaneous cpm)]×100. […] Aliquots containing 3.4×10^5 cells were incubated for a further 90 min at 37° C. with 1 mM EDTA or 1 mM Ca^2+ and 2 μl of YT granule contents (which induces 20-40% specific chromium release in 60 min, and characteristic internucleosomal DNA degradation. The total reaction volume of each sample was 30 μl. The reactions were terminated by boiling in SDS gel buffer and samples were electrophoresed and immunoblotted as described above. Experiments were performed using 2 different preparations of granule contents and 4 different cell types (K562, Jurkat, HeLa, primary human myoblasts).
# [2] = tested on: K562 erythroleukemia cells; assay: Substrate cleavage in Fas-negative K562 target cells attacked by LAK cells; assay type: cell-based
# Protocol: LAK cells were obtained by culturing human PBMCs for 4 days in LAK medium (RPMI supplemented with 10 mM Hepes pH 7.4, L-glutamine, 2% autologous plasma), and 1000 Cetus units/ml of hrIL-2 (Chiron Therapeutics, Emeryville, Calif.) (Topalian et al., 1989). […] After 2 washes with PD, cells were lysed and boiled in SDS sample buffer, and PARP, DNA-PKcs and NuMA were assayed by immunoblotting as described above.
# HeLa cells = assay: Confocal immunofluorescence of morphologic changes in HeLa cells exposed to YT cell granule contents; assay type: cell-based; conditions: 100 μM Ac-DEVD-CHO
# Protocol: Morphologic experiments were performed on HeLa cells grown on No. 1 glass coverslips. […] 25 μl of HBSS containing 2 mM CaCl2 was then added to each coverslip (mixed well by repeated, gentle aspiration), followed by incubation in a humidified chamber at 37° C. for 60 min. […] Coverslips were mounted on glass slides with Permafluor (Lipshaw, Pittsburgh, Pa.), and confocal microscopy was performed on a scanning confocal microscopy system (LSM 410, Carl Zeiss, Inc., Thornwood, N.J.).
# caspase-3 [3] = biological target: T2, caspase-3 (Homo sapiens, UniProt P42574); assay: Cleavage of endogenous substrates in HeLa lysates by added purified caspase-3, with inhibitors; assay type: biochemical; conditions: 100 nM inhibitor, HeLa lysate, 105 pM caspase-3, 37° C. 60 min
# T2 construct: made in house
# T2 sequence (P42574 29-175 limits assumed): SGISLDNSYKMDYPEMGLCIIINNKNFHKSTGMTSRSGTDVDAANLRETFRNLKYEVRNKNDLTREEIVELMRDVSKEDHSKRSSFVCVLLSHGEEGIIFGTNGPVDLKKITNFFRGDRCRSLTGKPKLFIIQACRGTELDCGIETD
# T2 sequence (P42574 176-277 limits assumed): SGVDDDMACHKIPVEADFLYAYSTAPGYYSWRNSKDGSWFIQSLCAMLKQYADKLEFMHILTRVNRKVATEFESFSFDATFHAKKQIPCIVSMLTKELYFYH
# Protocol: as §1
# caspase-1 = biological target: T3, caspase-1 (Homo sapiens, UniProt P29466); conditions: cited from earlier work
# T3 sequence (P29466 120-297 limits assumed): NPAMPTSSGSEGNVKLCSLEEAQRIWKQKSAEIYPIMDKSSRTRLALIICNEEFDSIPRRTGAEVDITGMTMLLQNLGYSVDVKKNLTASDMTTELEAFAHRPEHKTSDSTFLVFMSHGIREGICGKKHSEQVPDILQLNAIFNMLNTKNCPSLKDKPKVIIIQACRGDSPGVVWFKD
# T3 sequence (P29466 317-404 limits assumed): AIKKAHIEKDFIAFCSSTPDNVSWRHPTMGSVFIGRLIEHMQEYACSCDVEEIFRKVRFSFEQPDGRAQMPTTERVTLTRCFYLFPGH
# caspase-3 [4] = biological target: T2, caspase-3; conditions: cited from earlier work
# caspase-7 = biological target: T4, caspase-7 (Homo sapiens, UniProt P55210); conditions: cited from earlier work
# T4 sequence (P55210 24-198 limits assumed): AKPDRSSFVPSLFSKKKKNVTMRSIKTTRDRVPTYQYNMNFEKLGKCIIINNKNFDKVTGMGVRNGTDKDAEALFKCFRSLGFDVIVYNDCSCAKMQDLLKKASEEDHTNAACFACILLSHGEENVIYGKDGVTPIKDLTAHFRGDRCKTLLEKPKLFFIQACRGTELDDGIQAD
# T4 sequence (P55210 207-303 limits assumed): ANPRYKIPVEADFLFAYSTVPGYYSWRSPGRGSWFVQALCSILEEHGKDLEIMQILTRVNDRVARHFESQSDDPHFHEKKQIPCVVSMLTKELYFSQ
# caspase-10 = biological target: T5, caspase-10 (Homo sapiens, UniProt Q92851); conditions: cited from earlier work
# T5 sequence (Q92851 220-415 limits assumed): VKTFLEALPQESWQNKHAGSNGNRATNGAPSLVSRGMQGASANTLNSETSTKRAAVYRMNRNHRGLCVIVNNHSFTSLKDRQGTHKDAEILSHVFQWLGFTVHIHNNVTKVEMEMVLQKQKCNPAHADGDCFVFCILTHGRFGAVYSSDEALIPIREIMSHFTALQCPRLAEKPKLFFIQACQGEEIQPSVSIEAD
# T5 sequence (Q92851 416-521 limits assumed): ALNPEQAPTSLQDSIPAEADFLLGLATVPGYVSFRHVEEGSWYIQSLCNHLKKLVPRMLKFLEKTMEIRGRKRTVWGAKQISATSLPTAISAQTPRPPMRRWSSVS
# [5] = 100 μM Ac-DEVD-CHO, LAK:K562 5:1
molecule,measurement,setting,value
NC(=O)CI [iodoacetamide],cleavage of PARP,[1],almost entirely abolished
KI-67: autoantigen,cleavage by caspase-8,caspase-8,No cleavage
same,susceptibility to cleavage by granzyme B,granzyme B,cleaved
Ku-70: autoantigen,cleavage by caspase-8,caspase-8,No cleavage
same,susceptibility to cleavage by granzyme B,granzyme B,efficiently cleaved
Ku-80: uncleaved autoantigen,susceptibility to cleavage by granzyme B,granzyme B,uncleaved
N-(N-Ac-Asp-Glu-Val)-3-amino-4-oxobutanoic acid [Ac-DEVD-CHO],cleavage of PARP,[1],almost entirely abolished
same,generation of caspase-3-specific fragments of NuMA (185 kDa) and DNA-PKcs (150 kDa C-terminal),[1]; inhibitor added prior to granzyme B,abolished
same,generation of 150 kDa and 120 kDa DNA-PKcs fragments,K562 cells; YT granule contents,entirely inhibited
same,generation of the 89 kDa PARP fragment,K562 cells; YT granule contents plus Ca2+,completely inhibited
same,production of granzyme B-specific cleavage fragments of DNA-PKcs and NuMA,K562 cells; YT granule contents plus Ca2+,not inhibited
same,100 kDa granzyme B-specific fragment of DNA-PKcs,[2]; [5],insensitive
same,inhibition of generation of caspase-3-specific fragments of DNA-PKcs,[2]; [5],> 90%
same,PARP cleavage,"[2]; 100 μM Ac-DEVD-CHO, LAK:K562 5:1, 4 h",entirely abolished
same,cleavage of PMS1,"[2]; intact cell killing by LAK cells, Ac-DEVD-CHO added",unaffected
same,"granule content-induced surface blebbing, nuclear fragmentation, apoptotic bodies, redistribution of nuclear autoantigens",HeLa cells,prevented
N-(N-Ac-Tyr-Val-Ala)-3-amino-4-oxobutanoic acid [Ac-YVAD-CHO],substrate fragments generated by the activity of caspase-3,caspase-3 [3],unaffected
same,Ki,caspase-1,0.6 nM
same,Ki,caspase-3 [4],> 10000 nM
same,Ki,caspase-7,> 10000 nM
same,Ki,caspase-10,408 nM
PMS2: autoantigen,cleavage by caspase-8,caspase-8,not cleaved
same,susceptibility to cleavage by granzyme B,granzyme B,cleaved
RNA polymerase I: autoantigen,susceptibility to cleavage by granzyme B,granzyme B,cleaved
Ro52 kDa: ribonucleoprotein autoantigen,susceptibility to cleavage by granzyme B,granzyme B,not susceptible to cleavage
Ro 60k: ribonucleoprotein autoantigen,susceptibility to cleavage by granzyme B,granzyme B,uncleaved
same,susceptibility to cleavage by granzyme B,granzyme B; listed as Ro 60 kDa,not susceptible to cleavage
Topoisomerase I: autoantigen,cleavage by caspase-8,caspase-8,No cleavage
same,susceptibility to cleavage by granzyme B,granzyme B; listed as topoisomerase-1,efficiently cleaved
U1-70 kDa: autoantigen cleaved by caspases during apoptosis,cleavage by caspase-8,caspase-8,No cleavage
same,susceptibility to cleavage by granzyme B,granzyme B,efficiently cleaved
nuclear mitotic apparatus protein [NuMA],cleavage by caspase-8,caspase-8,No cleavage
poly(ADP-ribose)polymerase [PARP],cleavage by caspase-8,caspase-8,No cleavage
same,susceptibility to cleavage by granzyme B,granzyme B,efficiently cleaved
"vinculin: control substrate, non-autoantigen [reference compound]",susceptibility to cleavage by granzyme B,granzyme B,not cleaved
